# Reference: the supplement of paper PMC9170038
# Test system: K4 kissing-loop RNA reporter
# Experiment: apparent KD of K4 kissing-loop reporter; higher = weaker reporter binding
# Settings: Eterna round: R107
# Protocol: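 RNA-MaP round R107: designed RNA switches with theophylline, tryptophan, arginine or FMN aptamers are transcribed on-chip within common flanks. They are titrated with a labelled K4 kissing-loop RNA reporter in RNA-MaP buffer (100 mM Tris pH 7.5, 80 mM KCl, 4 mM MgCl2), without ligand or with the indicated ligand. Median apparent KD per design.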
# [1] = input ligand: theophylline 20 uM
# [2] = input ligand: tryptophan 2.4 mM
# 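Note: bound reporter read as fluorescence of individual clusters on recovered sequencing chips by microscopy, with normalized cluster intensities fitted with a binding model.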
Sequence,apparent KD of K4 kissing-loop reporter (input ligand: FMN 200 uM),apparent KD of K4 kissing-loop reporter (input ligand: arginine 13.2 mM),apparent KD of K4 kissing-loop reporter (input ligand: none),apparent KD of K4 kissing-loop reporter [1],apparent KD of K4 kissing-loop reporter [2]
AACCGUGUGGCGGCCGCCACUAGUCUCCAGUGAUGUUGGAGAGACCACGUAAGUGGUCUCCGACAUAGGACCGGGCCAUAUGGAA [Same State - Tryptophan B (Freestyle 25)],547 nM,339 nM,361 nM,531 nM,692 nM
AACGUUUUGAGAAGGAGCGCGUUAAGCAGUGAUGUUGCUGUAUUUUAUCCAAUUCAUAUAUCGCAGGUAGGUCGCUCAAUACGUA [JR_Nu_SSArginiB_Sub027],574 nM,496 nM,557 nM,534 nM,432 nM
AACUCUCAGACACUUGAGUGAUGUUCAGACCGAGGACCGGUACGGCCGCCACUCGGGUCUGAGAGAGGUUAUCAAAGAUAGCCAA [Omei KL Tryp A SS A v7],280 nM,222 nM,336 nM,292 nM,905 nM
AACUGUCAAGGAACUUGCAACAAAGGUGAUACCAGCAUCGAAAGAUGCCCUUGGCAGCACCAACUUGCAGUGAUGUUGCAAGUAA [(T)'-(H)'-(T1)-(T2)-(H1)-(H2)_Design7],300 nM,243 nM,322 nM,402 nM,286 nM
AAGAAUAAUCUUGCAGUGAUGUUGCAAGAUACCAGCAUCGAAAGAUGCCCUUGGCAGCUUGAAACUGCAAGAAUCAAGCUGAAUA [Design1],150 nM,131 nM,140 nM,145 nM,137 nM
AAGCAGUCACUCGAAGCCAUCGAAGAUGGACGAGGACCGGUACGGCCGCCACUCGGAGUGAUGUUCCGAAGACUGCAAAAUAAAA,312 nM,274 nM,296 nM,330 nM,469 nM
AAGCCAAAGAUUGCUGCGGGUUCCAGAGAUACCAGCCGUAUUGAAGGCCCUUGGCAGCUCGAGUGAUGUUCGAGCCGUCUCUGGC [Lexerati],127 nM,117 nM,117 nM,122 nM,105 nM
AAGCUACGCGCGGCCGCCACUGUUUAUGUAUAAAUGCGUCGCUCACUGCUUUAGUGAUGUUGAAGCAGGACCGGGCGAAUGGUAC [theeternabot_exclusion_KL_Trp_B_15],80.9 nM,75 nM,79.6 nM,76.5 nM,82.7 nM
AAGGACGGGACUUCCUCGCCGGAUAGAGAUACCAGCCCAGCAAUGGGCCCUUGGCAGCUCACUGACCUCAGUGAUGUUGAGGUUC [Arange],289 nM,203 nM,240 nM,193 nM,210 nM
AAGGCCACGAGAAGGAGCGUGCUAUGGAGUGAUGUUCCAGUGUAGACCUAAGGUCUACACGCACAGGUAGGUCGCUCGUGGUCAA [Omei KL Arginine B SS A v1],209 nM,186 nM,203 nM,238 nM,186 nM
AAGGGCAGGACUUCCUUGCCGGAUAGAGAUACCAGCCCAGCAAAGGGCCCUUGGCAGCUCACUGACCUCAGUGAUGUUGAGGUUC [Xebisoer],369 nM,268 nM,332 nM,272 nM,297 nM
AAGGGCUAGGCGGCCGCCACUGGUCGUGUACACAUACGAACCAGUGAUGUUGGUAUUGUAUGCGGCAGGACCGGGCCUAGCCGAA [Exclusion - Tryptophan B (Freestyle 26)],415 nM,447 nM,448 nM,614 nM,405 nM
AAGGGCUAGGCGGCCGCCACUGGUCGUGUACACAUACGAGCCAGUGAUGUUGGUAUUGUGUGCGGCAGGACCGGGCCUAGCCGAA [Exclusion - Tryptophan B (Freestyle 25)],410 nM,303 nM,304 nM,468 nM,387 nM
AAGGGCUAGGCGGCCGCCACUUGUUGUGAACACAUACGAGCCAGUGAUGUUGGUAUUGUGUGCGGAAGGACCGGGCCUAGCCGAA [Exclusion - Tryptophan B (Freestyle 22)],178 nM,226 nM,228 nM,224 nM,302 nM
AAGGUAUCUAGAUGCUAGCAACAACUAGAUACCAGCAUCGAAAGAUGCCCUUGGCAGCUAGCAGUGAUGUUGCUAGCAAUAAGAA [Design4],152 nM,130 nM,131 nM,158 nM,131 nM
AAGUAGCUCUCGGCCGCCACUCCUCAGUGAUGUUGAGAUAUUAACUGCCAAUUGGCGUAUUUAAAGAGGACCGGGAGAGCUACAA [AK2 SS Tryptophan B],389 nM,389 nM,476 nM,397 nM,129 nM
AAGUGAUGUUGUAGUGAUGUUGUGAUGUUGCAGGAUAUAUAGUGAUGUAGAAGGGUAAGUACUGAUUUUUUUUGUGAGUGAUGUU [bbgvzrmullin],87.9 nM,41.6 nM,75.9 nM,54.1 nM,71.4 nM
AAGUGAUGUUGUAGUGAUGUUGUGAUGUUGCAGGAUAUAUAGUGAUGUAGAAGGGUAAGUACUUAUUUUUUUUUUGAGUGAUGUU [vcbczrmullin],96.6 nM,45 nM,76.5 nM,58 nM,83.7 nM
AAGUGAUGUUGUAGUGAUGUUGUGAUGUUGCAGGAUAUAUAGUGAUGUAGAAGGGUAUGUACAGAUUUUUUUUUUGAGUGAUGAU [ffdcmullin],83.4 nM,37.1 nM,64.9 nM,48.1 nM,66.1 nM
AAUAUACAGGGAAGGAGCGCCGUCCAGUGAUGUUGGAGUUAAAUACCAGUGAUGUUGGUUAGGCAGGUAGGUCGCCCUAAAGUAU [Exclusion Arginine B Gf 2],125 nM,82.7 nM,105 nM,102 nM,96.7 nM
AAUAUAGUGAUGUUAUAUAAGAAGGAGUUACGAGGACCGGUACGGCCGCCACUCGAAACGAGUGAGGAUUUGGGAGAUUGGGUUC [SSTryptA.L],465 nM,539 nM,393 nM,302 nM,283 nM

Sequence,apparent KD of K4 kissing-loop reporter (input ligand: FMN 200 uM),apparent KD of K4 kissing-loop reporter (input ligand: arginine 13.2 mM),apparent KD of K4 kissing-loop reporter (input ligand: none),apparent KD of K4 kissing-loop reporter [1],apparent KD of K4 kissing-loop reporter [2]
AAUAUAUAGUGAAGGAGCGCGUAUUGCAGUGAUGUUGCUAAGUUAUUAUUAUCUAUUUUUACGCAGGUAGGUCGCACUAUAUAUA [JR_SSArginiB_Sub014],213 nM,231 nM,224 nM,245 nM,193 nM
AAUCAAUACAGAAGGAGCGUGACAAUUACUAUUGAAUUAGGUGCUAGUGAUGUUAGCAUUACACAGGUAGGUCGCUGUACAUUUA [JR_SSArginiB_Sub011],81.4 nM,85.5 nM,87.5 nM,89 nM,78.3 nM
AAUGAUCGUAUGGCGAGGUACUCGUGUUCGAAGGAUAUUAAUAGAAUAAGAAGGUCGAAAUCGUGUCUGGAAGUGAUGUUUCCAU [theeternabot_sameState_KL_FMN_A_32],111 nM,106 nM,106 nM,123 nM,89.6 nM
AAUGCAUAGUGAAGGAGCGCGUAUAGCAGUGAUGUUGCUUACUUAUUAUUAUAUUAAUUGACGCAGGUAGGUCGCACUUUGCAUA [JR_ExcArginiB_Sub022],196 nM,144 nM,196 nM,181 nM,156 nM
AAUUCAAACUGAAGGAGCGAGCAAAUCGGAGUGAUGUUCCAAGCGAGUGAUGUUCGCAUAGCUCAGGUAGGUCGCAGUUUGGAUA [Same State Arginie B GF 13],120 nM,95.2 nM,107 nM,101 nM,101 nM
AAUUCCUGUUAUGAUACCAGAAAUCACAGCAACCUGCCUACCUAGUGAUGUUAGGAGAAUUUCCCUUGGCAGCAUCGACUGAAGG [theeternabot_sameState_KL_Theo_B_38],147 nM,173 nM,145 nM,151 nM,124 nM
AAUUUAUUAACUGAUACCAGACUUUAAUUUAUAUAUAUGUCUAGUGAUGUUAAACAUAUUGUCCCUUGGCAGCAGUAUUUAUUAA [JR_SSTheophyB_Sub020],761 nM,399 nM,755 nM,768 nM,536 nM
ACACGGAGAGGCAUAACGUGCAUCUUCAGCGAGGAUAUCCAUUACAGGAGAAGGCGCUCCGGAGUGAUGUUCCGGCAAAAGAUAC [Quatatte],83.5 nM,151 nM,102 nM,146 nM,91.5 nM
ACGAAGGAUGGAAGGAGCGCUCGUCAGUCCUGCGAGUGAUGUUCGUGGGUAAAUAUUCGCGAGCAGGUAGGUCGCCAUCUUGAGC [Soregeor],144 nM,115 nM,144 nM,134 nM,129 nM
ACGACGCAUAGUGAUACCAGCACAAUAUGAGUGAUGUUCAACAUAUAAAUGUAAUAAUUAUGCCCUUGGCAGCACUAUGCGUCAG [KL-SSTheoB1],658 nM,660 nM,793 nM,707 nM,591 nM
ACGACGGCAGCUCAGUGAUGUUGGGCAUUACGAGGACCGGUACGGCCGCCACUCGCUGCUUUGAUCCGUGGAUGAACCUCAGCAU [theeternabot_sameState_KL_Trp_A_13],576 nM,464 nM,601 nM,734 nM,402 nM
ACGCGCGCGAGUGAUGUUCGGAGCGGCUGGCAGGAUAUGUAGCAAUGCAGAAGGGUCGUGGCGGGCGCGGCGAAAGCCGCGCCCG [#2 Exclusion - FMN A Attempt #6 (HarryS)],150 nM,282 nM,444 nM,622 nM,293 nM
ACGCUUGAAUAACAAGCGAAAUAAAAUUCGCGAGGACCGGUACGGCCGCCACUCGCUAACUGCGAGUGAUGUUCGAUAAUAAAAU [Mat - Mod of OpenEnded 3 - D16],139 nM,80.2 nM,129 nM,208 nM,69.1 nM
ACGGAUUCGAAUACCGAAUGAAAUAGGGAUACCAGCACGUGAACGUGCCCUUGGCAGCCCAGCCCAGUGAUGUUGGGCCCAUGGC [Biso],173 nM,185 nM,179 nM,212 nM,204 nM
ACGUAGUUCUAGGAUACCAGCCAAGGUGCCAGGACAAAAGUCCUGGCAGUCAGUGAUGUUGGCCCUUGGCAGCCUAGAACUACGA [Omei KL Theo B Exc B v8],176 nM,196 nM,215 nM,209 nM,218 nM
ACGUAUAUCAGAGGAUAUCGUAUUAAUAUUUUAUCUAUAUAGUUUUGCAGUGAUGUUGCAAUUAUUCGAGAAGGCUGAUUUACGA [JR_SSFMNB_Sub024],86.1 nM,95.6 nM,75.3 nM,89.2 nM,69.2 nM
ACGUGAAGCGACUCCUAGUUAAACCGGGAAGGAGCGCGGAUAACCGCAGGUAGGUCGCCCGGAAGCCGGACCAGUGAUGUUGGUC [Exclusion Arginine A Gf 26],263 nM,191 nM,207 nM,217 nM,198 nM
ACGUGCACCAGUGAUGUUGGAAAAUAUGAAGGAGCGUGCGAAAGCACAGGUAGGUCGCAUAAUAGCACGAGCCACGAAAGUGGCA [#SwitchBubble 6 #K4Early #Sliding],131 nM,159 nM,134 nM,132 nM,102 nM
ACUAGUUAAUCGGCCGCCACUUCUAGUGAUGUUAGAAUUAUCCAGAUUAUCAGCGUAGCACAUUGAAGGACCGGGAUAAGGUGGU [theeternabot_exclusion_KL_Trp_B_2],275 nM,236 nM,269 nM,273 nM,261 nM
ACUGAAAGAUCUGAUACCAGACUUUUUGUAUUUAUUAAAACUAGUGAUGUUAGUUUAUCAGUCCCUUGGCAGCAGUUACUACAGA [JR_Nu_ExcTheophyB_Sub024],91 nM,106 nM,105 nM,103 nM,95.4 nM
ACUGCCAUUGCGGCCGCCACUAUCUCACUUUGCGAAUCUGCACCGACUGAGUGAUGUUCGGUAAAUAGGACCGGGCAAUGGGCCG [theeternabot_sameState_KL_Trp_B_26],611 nM,479 nM,633 nM,281 nM,657 nM
